Assay [1] concerns the target T1, TLR9 tagged at the C terminus with enhanced green fluorescent protein, Q9NR96.
T1 chain: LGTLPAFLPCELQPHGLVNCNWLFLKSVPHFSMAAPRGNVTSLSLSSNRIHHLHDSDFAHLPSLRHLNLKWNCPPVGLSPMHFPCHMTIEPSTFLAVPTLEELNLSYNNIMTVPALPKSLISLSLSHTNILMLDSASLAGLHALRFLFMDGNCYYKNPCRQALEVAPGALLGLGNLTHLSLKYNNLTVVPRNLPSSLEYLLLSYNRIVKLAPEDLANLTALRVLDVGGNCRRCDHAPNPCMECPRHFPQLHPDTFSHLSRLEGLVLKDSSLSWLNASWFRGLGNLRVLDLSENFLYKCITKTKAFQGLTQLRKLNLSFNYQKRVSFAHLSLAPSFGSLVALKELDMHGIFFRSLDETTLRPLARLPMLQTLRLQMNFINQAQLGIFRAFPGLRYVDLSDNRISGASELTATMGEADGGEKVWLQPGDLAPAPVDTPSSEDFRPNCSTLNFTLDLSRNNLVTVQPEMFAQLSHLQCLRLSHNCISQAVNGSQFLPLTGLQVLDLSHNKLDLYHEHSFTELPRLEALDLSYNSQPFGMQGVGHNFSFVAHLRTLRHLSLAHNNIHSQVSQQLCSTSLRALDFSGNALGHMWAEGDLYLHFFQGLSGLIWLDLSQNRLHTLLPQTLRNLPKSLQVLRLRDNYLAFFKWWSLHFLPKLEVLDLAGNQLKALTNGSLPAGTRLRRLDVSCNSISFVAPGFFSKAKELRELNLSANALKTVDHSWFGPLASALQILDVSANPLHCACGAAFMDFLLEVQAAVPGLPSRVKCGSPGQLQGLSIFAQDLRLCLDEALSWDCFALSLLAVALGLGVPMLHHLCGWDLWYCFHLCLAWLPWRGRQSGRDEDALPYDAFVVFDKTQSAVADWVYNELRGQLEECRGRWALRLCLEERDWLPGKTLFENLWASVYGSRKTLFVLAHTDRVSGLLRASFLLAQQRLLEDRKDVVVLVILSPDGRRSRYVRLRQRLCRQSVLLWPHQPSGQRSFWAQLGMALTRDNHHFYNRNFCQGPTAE
In words: photon counting histogram (PCH); live HEK 293 cells expressing TLR9-GFP; molecular brightness compared with GFP monomer; two-component global fit with the brightness of GFP monomer and GFP dimer fixed; bin size 50 µs; without DNA, with CpG DNA or with non-CpG DNA; monomer to dimer. Conditions: remark: other sources report otherwise.

Assay [2] concerns the target T1, TLR9 tagged at the C terminus with …. In words: two-dimensional photon counting histogram (2dPCH); live HEK 293 cells expressing TLR9-GFP, incubated with Cy5-labelled CpG or non-CpG DNA; single-component fit; brightness in the green and red channels; bin size 50 µs. Conditions: remark: other sources report otherwise.

B1: TLR9 tagged at the C terminus with enhanced green fluorescent protein, Q9NR96 26-1032 (receptor)
chain: T1 chain
Take B1: in assay [1], the percent of TLR9 as dimers (no DNA) came to 79.1%, the percent of TLR9 as dimers (with CpG DNA) was determined as 82.6%, the percent of TLR9 as dimers (with non-CpG DNA) came out at 82.6% and the stoichiometry N (usually a count of units in the complex or per binding partner) stood at 2. Moreover, the stoichiometry N in assay [2] worked out at 2.

Values taken from paper PMC3070698.
